Reference: US12662540B2, “Compositions and methods for inhibition of MICA/B shedding” (DANA-FARBER CANCER INSTITUTE, INC., priority 2017, dated 2026)

Columns and labels:
MICA = assay: ELISA for antibody binding to immobilized MICA extracellular domain (α1-α3 domains; alleles 002, 008, 009, 018); set-up: species or system human; settings: immobilized antigen
Experimental: ELISA experiments were performed in DELFIA® 96-well plates (Perkin Elmer) or in Nunc Maxisorp 96-wells plates (Thermo Scientific). Wells were coated with antigens by overnight incubation at 4° C. using 100 ng of protein in 100 μl of carbonate buffer, […]. Plates were subsequently washed with 1× Tris-buffered saline-Tween buffer and incubated for 2 hours with 2% bovine serum albumin (BSA) in phosphate buffered saline (PBS), pH 7.4, or DELFIA® Assay Buffer (Perkin Elmer) at room temperature. MICA antibodies were used at 1 μg/ml, unless indicated otherwise. Isotype controls were MPC-11 (mIgG2b) and MOPC-21 (mIgG1), but only MPC-11 is shown in the figures, given that no differences were observed between these controls. Human isotype control was a recombinant human IgG1 antibody (BE0096, BioXcell). Biotinylated goat anti-mouse IgG (Poly4053—Biolegend) was used as the secondary antibody which was followed by streptavidin-Europium (Perkin Elmer) and DELFIA® Enhancement Solution (Perkin Elmer). Europium fluorescence was quantified using an EnVision® microplate reader (Perkin Elmer). The HRP-conjugated secondary antibodies were Novex® Goat anti-human IgG (A24470, Life Technologies), Goat anti-mouse IgG1 (1070-05), IgG2a (1080-08), IgG2b (1090-05), and IgG3 (1100-05), and Goat anti-mouse IgG (31430, Thermo Scientific). […] Absorbance was read at 450 nm.

human NK cells = assay: Intracellular interferon-γ production by NK cells co-cultured with tumor cells; assay type: cell-based; settings: co-culture with tumor cells, antibody 10 μg/ml
Experimental: NK cells were co-cultured for 6 hours at a ratio of 5:1 with tumor cells in the presence of Brefeldin-A (Biolegend). After the incubation time, Fc receptors were blocked, cells stained with NK cell markers, stained further with a dead cell marker (Zombie Yellow, Biolegend), and subsequently processed for intracellular interferon-γ labeling. Briefly, cells were fixed with BD Cytofix/Cytoperm™ Fixation and Permeabilization Solution (BD Pharmingen), permeabilized with Permeabilization Wash Buffer (Biolegend), and stained with APC-conjugated anti-human interferon-γ (4S.B3, Biolegend) or appropriate isotype control. Fluorescence spectra were acquired using a LSR Fortessa flow cytometer and analyzed by FlowJo.

[1] = test system: short-term human melanoma cell lines; assay: MICA/MICB shedding by short-term human melanoma cell lines; assay type: cell-based; settings: 24-72 hours
From the text: A375, HCT-116, SK-N-SH, K562, A2058, B16F10, CT26, and Neuro-2a cell lines were all obtained from American Type Culture Collection (ATCC). HEPG2 and MDA-MB-231 cell lines were kindly provided by Drs. Chandan Sharma and Martin Hemler, Dana-Farber Cancer Institute, Boston. The EL4 and RMA-S cell lines were generous gifts from Dr. Mark Smyth, QIMR Berghofer Medical Research Institute, Herston, Australia. The short-term human melanoma cell lines CY.21A-S1, CY36-S1, and CY048-S were obtained from patients following surgical resection of metastatic lesions as previously described (27). All cell lines were mycoplasma free, as tested by MycoProbe Mycoplasma Detection Kit (R&D Systems). Human and murine cell lines were cultivated in RPMI-1640 or DMEM media, respectively, supplemented with 10% fetal bovine serum (FBS), 1× Glutamax® (Gibco), and 1× Penicillin and Streptomycin (Gibco). […]
Tumor cells (5×10^4 or 1×10^5 per well, depending on the cell line) were cultured for 24 to 72 hours in 96-well plates (flat-bottom plates for adherent cell lines, U-bottom plates for suspension cell lines). […] MICA or control antibodies were added at different concentrations, and shed MICA/B was then detected in supernatants by ELISA using the Human MICA ELISA kit (Ab59569, Abcam) or Human MICB DuoSet ELISA kit (DY1599, R&D Systems), using the procedures recommended by the manufacturers. […]

B16F10-MICA cells = assay: Mouse NK cell transfer and B16F10-MICA metastases in Rag2−/− Il2rg−/− mice; assay type: in vivo
Experimental: NK cell adoptive transfer was done as described previously (25). Briefly, NK cells from mice of indicated genotypes were isolated from the spleen, enriched by negative selection, and sorted to achieve an NK cell purity of ˜99%. Subsequently, 2×10^5 NK cells were injected intravenously into Rag2^−/− IL2rg^−/− mice. Three days later, reconstitution was checked in blood samples by flow cytometry, and no differences in NK cell frequency were observed among the NK cell genotypes. Subsequently, 4×10^5 B16F10-MICA cells (with luciferase reporter) were injected intravenously (day 0). On days 1, 2, 7, and 10, mice received 200 μg 7C6-mIgG2b or MPC-11 (isotype control) by intraperitoneal injection. Mice were bled at the indicated time points. Euthanasia by CO2 inhalation was performed on day 14 followed by counting of superficial lung metastases as described above.

RPMI-8226 cell line = assay: Proteasome inhibitor combination with MICA/B antibody, multiple myeloma cell lines; assay type: cell-based, human

B1: 7C6: monoclonal antibody from mice immunized with recombinant MICA α3 domain; parental mIgG2b; VH SEQ ID NO: 7, VL SEQ ID NO: 8 (antibody)
VH: QIQLVQSGPELKKPGETVKVSCKASGYMFTNYAMNWVKQAPEKGLKWMGWINTHTGDPTYADDFKGRIAFSLETSASTAYLQINNLKNEDTATYFCVRTYGNYAMDYWGQGTSVTVSSAKTTAPSVYPLAPVCGDTTGSSVTLGCLVKGYFPEPVTLTWNSGSLSSGVHTFPAVLQSDLYTLSSSVTVTSS
VL: DIQMTQTTSSLSASLGDRVTISCSASQDISNYLNWYQQKPDGTVKLLIYDTSILHLGVPSRFSGSGSGTDYSLTISNLEPEDIATYYCQQYSKFPRTFGGGTTLEIK
modifications: mAb 7C6 heavy chain amino acid sequence; mAb 7C6 light chain amino acid sequence
In the case of B1, the “binding to MICA full-length extracellular domain” value (MICA) is reported as “also the full-length extracellular domain”, the “IFNγ (cytokine) production by human NK cells” value (human NK cells) is reported as “increases NK cell cytotoxicity and cytokine production” and the “MICA and MICB shedding by short-term human melanoma cell lines” value [1] is reported as “inhibited MICA and MICB shedding”. For the same molecule, the “lung metastases after transfer of NK cells deficient in either NKG2D (Klrk1) or CD16 (Fcgr3a)” value (B16F10-MICA cells; day 14) was “therapeutic effect was maintained (but more variable)”, the “lung metastases after transfer of NK cells lacking both NKG2D and CD16” value (B16F10-MICA cells; day 14) was “antibody therapy was ineffective” and the “lung metastases after transfer of WT NK cells” value (B16F10-MICA cells; day 14) was “most consistent reduction in the number of lung metastases”. For the same molecule, the “serum shed MICA after transfer of NK cells lacking both NKG2D and CD16” value (B16F10-MICA cells; mouse, in vivo) was “shed MICA was still reduced”, the “human NK cell cytotoxicity against RPMI-8226, bortezomib plus antibody” value (RPMI-8226 cell line; 1 nM bortezomib, versus PBS+Isotype) was “Human NK cell cytotoxicity is increased” and the “surface MICA/B, antibody plus proteasome inhibitor” value (RPMI-8226 cell line; RPMI-8226, 24 hours, 10 mg/ml 7C6) was “expresses higher levels of surface MICA/B”.
